From paper PMC8224366

How the values were obtained:
[1] = molecular target: EPN-Fos-C (EPN monomer with the Fos domain at the C-end; prokaryotic construct pET-EPN-Fos-C) (HIV | not stated)
[2] = molecular target: EPN-Fos-M (EPN monomer with the Fos domain between the Interaction domain and the Late budding domain; prokaryotic construct pET-EPN-Fos-M) (not stated | HIV)
[3] = molecular target: EPN-p6 (enveloped protein nanocage monomer with the p6 domain; prokaryotic construct pET-EPN-His-p6) (HIV)

| Substance | NanoLuc, molecules in a single nanocage, in EV C (estimated from luciferase assay and the EPN/NanoLuc molar ratio by MS/MS) (molecules in a single nanocage) [1] | NanoLuc, molecules in a single nanocage, in EV C(lenti) (estimated from luciferase assay and the EPN/NanoLuc molar ratio by MS/MS) (molecules in a single nanocage) [1] | NanoLuc, molecules in a single nanocage, in EV M (estimated from luciferase assay and the EPN/NanoLuc molar ratio by MS/MS) (molecules in a single nanocage) [2] | NanoLuc, molecules in a single nanocage, in EV p6 (estimated from luciferase assay and the EPN/NanoLuc molar ratio by MS/MS) (molecules in a single nanocage) [3] |
| --- | --- | --- | --- | --- |
| NanoLuc-Jun (NanoLuc luciferase fused with the Jun leucine zipper domain) | 15 | 40 | 21 |  |
| NanoLuc-Vpr (NanoLuc luciferase fused with HIV viral protein R) (from UniProt P69726 1-96) |  |  |  | 1.5 |
